The source of these data is US5955420.

Assay [1] has as its target Rse ligand (Rse-L) in fetal bovine serum, unpurified or Q-Sepharose enriched (bovine) (UniProt P07224). The experiment in a line: Scatchard analysis, 125I-Rse-IgG displaced by unlabeled Rse-IgG on CMK11-5 membranes, 1% FBS.
Assay [2] concerns the target recombinant human gas6 (human). The assay can be described thus: 125I-Rse-IgG and purified gas6, displaced by unlabeled Rse-IgG, barium chloride coprecipitation.
For assay [3], the target named is Rse ligand (Rse-L) in fetal bovine serum, unpurified or Q-Sepharose enriched (bovine) (UniProt P07224). The assay can be described thus: Scatchard analysis, 125I-Rse-IgG displaced by unlabeled Rse-IgG on CMK11-5 membranes, 10% FBS.
Assay [4] has as its target Rse-IgG fusion protein (extracellular domain of human Rse followed by the Fc portion of human IgG) (human) (UniProt Q06418). The experiment in a line: 125I-Rse-IgG binding to CMK11-5 membranes.
Assay [5] deals with Rse.gD (human Rse receptor with a C-terminal HSV-1 glycoprotein D flag) on dp12.CHO cells (human) (UniProt Q06418).
For assay [6] the target is unchanged. This is another data set of the same source.
Assay [7] has as its target Rse-IgG fusion protein (extracellular domain of human Rse followed by the Fc portion of human IgG) (human) (UniProt Q06418). The experiment in a line: 125I-Rse-IgG binding assay.

pEC50, pKd: −log10 of the molar value.

A word on the pKd: it is −log10 of the Kd, conventionally taken in molar units. “Rse-IgG fusion protein (extracellular domain of human Rse followed by the Fc portion of human IgG) (from UniProt Q06418) (Fc fusion)”: the values for the negative-log Kd (pKd) in assay [1], in assay [2] and in assay [3] were 9.09, 9.34 and 8.66, respectively. What is called pEC50 is the negative decadic logarithm of the EC50, by convention in mol/L. A high value points to a low EC50. Substance “purified bovine protein S (Rse-L purified from fetal bovine serum) (from UniProt P07224) (ligand)” had a pEC50 in assay [4] of 8.92. The substance “gD.gas6.279-C.IgG (from UniProt P01857-1) (Fc fusion)” displayed a KIRA assay, EC50 for activation in assay [5] of 0.4 nM. In turn, recombinant human gas6 (ligand) registered a KIRA assay, specific activity (KIRA units/mg P) in assay [6] of 1170.

Take human protein S (ligand): in assay [4], the pEC50 was less than 6.60. The fold lower affinity than purified bovine protein S in assay [7] was 200 fold. “recombinant human gas6 lacking the gamma-carboxyl modification of glutamic acid (form 2) (ligand)”: the KIRA assay, specific activity (KIRA units/mg P) in assay [6] was 3160.
